Consider 43 substances from patent publication US10253076B2, “Peptides and combination of peptides for use in immunotherapy against ovarian cancer and other cancers” (immatics biotechnologies GmbH, priority 2015, dated 2019).

In one experiment the test system is CD8+ T cells. The experiment is described as follows: In vitro immunogenicity: T-cell priming with aAPCs loaded with peptide/MHC and anti-CD28, pMHC multimer readout. The note with it: for Wells positive [%]: HLA-A*02 restricted peptides; for wells: percentage of positive wells. In kind it is cell-based, human. The method, then: In an aspect, the peptides are pre-screened for immunogenicity before being included in the warehouse. By way of example, and not limitation, the immunogenicity of the peptides included in the warehouse is determined by a method comprising in vitro T-cell priming through repeated stimulations of CD8+ T cells from healthy donors with artificial antigen presenting cells loaded with peptide/MHC complexes and anti-CD28 antibody.
In order to obtain information regarding the immunogenicity of the TUMAPs of the present invention, the inventors performed investigations using an in vitro T-cell priming assay based on repeated stimulations of CD8+ T cells with artificial antigen presenting cells (aAPCs) loaded with peptide/MHC complexes and anti-CD28 antibody.
In order to perform in vitro stimulations by artificial antigen presenting cells loaded with peptide-MHC complex (pMHC) and anti-CD28 antibody, the inventors first isolated CD8+ T cells from fresh HLA-A*02 leukapheresis products via positive selection using CD8 microbeads (Miltenyi Biotec, Bergisch-Gladbach, Germany) of healthy donors obtained from the University clinics Mannheim, Germany, after informed consent.
PBMCs and isolated CD8+ lymphocytes were incubated in T-cell medium (TCM) until use consisting of RPMI-Glutamax (Invitrogen, Karlsruhe, Germany) supplemented with 10% heat inactivated human AB serum (PAN-Biotech, Aidenbach, Germany), 100 U/ml Penicillin/100 μg/ml Streptomycin (Cambrex, Cologne, Germany), 1 mM sodium pyruvate (CC Pro, Oberdorla, Germany), 20 μg/ml Gentamycin (Cambrex). 2.5 ng/ml IL-7 (PromoCell, Heidelberg, Germany) and 10 U/ml IL-2 (Novartis Pharma, Nürnberg, Germany) were also added to the TCM at this step.
Generation of pMHC/anti-CD28 coated beads, T-cell stimulations and readout was performed in a highly defined in vitro system using four different pMHC molecules per stimulation condition and 8 different pMHC molecules per readout condition.
The purified co-stimulatory mouse IgG2a anti human CD28 Ab 9.3 (Jung et al., 1987) was chemically biotinylated using Sulfo-N-hydroxysuccinimidobiotin as recommended by the manufacturer (Perbio, Bonn, Germany). Beads used were 5.6 μm diameter streptavidin coated polystyrene particles (Bangs Laboratories, Illinois, USA).
pMHC used for positive and negative control stimulations were A*0201/MLA-001 (peptide […] (SEQ ID NO. 664) from modified Melan-A/MART-1) and A*0201/DDX5-001 ([…] from DDX5, SEQ ID NO. 665), respectively.
800.000 beads/200 μl were coated in 96-well plates in the presence of 4×12.5 ng different biotin-pMHC, washed and 600 ng biotin anti-CD28 were added subsequently in a volume of 200 μl. Stimulations were initiated in 96-well plates by co-incubating […] CD8+ T cells with 2×10^5 washed coated beads in 200 μl TCM supplemented with 5 ng/ml IL-12 (PromoCell) for 3 days at 37° C. Half of the medium was then exchanged by fresh TCM supplemented with 80 U/ml IL-2 and incubating was continued for 4 days at 37° C. This stimulation cycle was performed for a total of three times. For the pMHC multimer readout using 8 different pMHC molecules per condition, a two-dimensional combinatorial coding approach was used as previously described (Andersen et al., 2012) with minor modifications encompassing coupling to 5 different fluorochromes. Finally, multimeric analyses were performed by staining the cells with Live/dead near IR dye (Invitrogen, Karlsruhe, Germany), CD8-FITC antibody clone SK1 (BD, Heidelberg, Germany) and fluorescent pMHC multimers. For analysis, a BD LSRII SORP cytometer equipped with appropriate lasers and filters was used. Peptide specific cells were calculated as percentage of total CD8+ cells. Evaluation of multimeric analysis was done using the FlowJo software (Tree Star, Oregon, USA). In vitro priming of specific multimer+ CD8+ lymphocytes was detected by comparing to negative control stimulations. […]

The next experiment concerns the target HLA-A*02:01 (Homo sapiens, UniProt P04439, D140Y/D185E/D98H/E176V/E277Q/G131W/G231S/I119V/I121R/I166T/I218V/L300P/L318F/N151K/N90K/P208A/P217A/Q86G/Q94H/R138H/R169H/T345S). The experiment can be described thus: MHC binding assay (UV-ligand exchange, beta2m ELISA, peptide exchange yield). To be noted: binding of HLA-class I restricted peptides to HLA-A*02:01, ranged by peptide exchange yield (UV-ligand exchange, β2m ELISA). The method, boiled down:
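Peptide–HLA-A*02:01 complexes made by UV-mediated exchange of a photocleavable peptide with the test peptide. Exchange products diluted 100-fold on streptavidin-coated plates, 1 h at 37°C, then HRP anti-β2m 1 h at 37°C; TMB read at 450 nm to give exchange yield.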
On the technique in general: An ELISA detects its analyte on a solid surface through an enzyme-linked reagent.

Consider “2 (SLLEADPFL; listed as Homo sapiens) [compound 2]”, for which the “Wells positive [%]” value in the experiment on CD8+ T cells is on record as “″+″ (<20% = +)”. For the same substance, the Peptide exchange result with HLA-A*02:01 is “″+++″ (≥50% = +++)”. In the case of “3 (SLASKLTTL; listed as Homo sapiens) [compound 3]”, in the experiment with CD8+ T cells, the “Wells positive [%]” value was “″+″ (<20% = +)”. For the same substance, the Peptide exchange result with HLA-A*02:01 is reported as “″++++″ (≥75% = ++++)”.

Take “8 (FTLGNVVGMYL; listed as Homo sapiens) [compound 8]”: in the experiment on CD8+ T cells, the “Wells positive [%]” value is “″+″ (<20% = +)”. In the experiment with HLA-A*02:01, the Peptide exchange entry was “″++++″ (≥75% = ++++)”. The like results for “11 (KIFEMLEGV; listed as Homo sapiens) [compound 11]” were, in that order, “″+″ (<20% = +)” and “″+++″ (≥50% = +++)”.

In the case of “36 (YVLEDLEVTV; listed as Homo sapiens) [compound 36]”, the “Wells positive [%]” value in the experiment with CD8+ T cells was “″+″ (<20% = +)”. Also, the Peptide exchange entry with HLA-A*02:01 was “″++″ (≥20% = ++)”.

As to “38 (FLLEDDIHVS; listed as Homo sapiens) [compound 38]”, in the experiment on CD8+ T cells, the “Wells positive [%]” value is “″+″ (<20% = +)”. Further, in the experiment with HLA-A*02:01, the Peptide exchange result is reported as “″+++″ (≥50% = +++)”. Regarding “48 (ALAELYEDEV; listed as Homo sapiens) [compound 48]”, in the experiment with CD8+ T cells, the “Wells positive [%]” value is on record as “″+″ (<20% = +)”. In the experiment with HLA-A*02:01, the Peptide exchange entry is “″+++″ (≥50% = +++)”. The corresponding values for “56 (KLYEGIPVLL; listed as Homo sapiens) [compound 56]” are “″+″ (<20% = +)” and “″++++″ (≥75% = ++++)”. The like results for “60 (SLTIDGIYYV; listed as Homo sapiens) [compound 60]” were, in that order, “″++++″ (> = 70% = ++++)” and “″++++″ (≥75% = ++++)”.

Take “79 (SLFIGEKAVLL; listed as Homo sapiens) [compound 79]”: in the experiment on CD8+ T cells, the “Wells positive [%]” value is “″+″ (<20% = +)”. Further, the Peptide exchange result with HLA-A*02:01 was “″+++″ (≥50% = +++)”. As for “113 (GLLPTPLFGV; listed as Homo sapiens) [compound 113]”, the “Wells positive [%]” value in the experiment with CD8+ T cells was “″+″ (<20% = +)”. Besides, the Peptide exchange result with HLA-A*02:01 was “″+++″ (≥50% = +++)”.

Consider “118 (KLIDNNINV; listed as Homo sapiens) [compound 118]”, for which, in the experiment with CD8+ T cells, the “Wells positive [%]” value was “″+″ (<20% = +)”. Further, the Peptide exchange entry with HLA-A*02:01 is listed as “″+++″ (≥50% = +++)”.

Consider “141 (YLDFSNNRL; listed as Homo sapiens) [compound 141]”, for which the “Wells positive [%]” value in the experiment on CD8+ T cells was “″+″ (<20% = +)”. The Peptide exchange entry in the experiment with HLA-A*02:01 is “″++″ (≥20% = ++)”. Turning to “143 (LLLDITPEI; listed as Homo sapiens) [compound 143]”, the “Wells positive [%]” value in the experiment with CD8+ T cells is given as “″+″ (<20% = +)”. In the experiment with HLA-A*02:01, the Peptide exchange result is “″++++″ (≥75% = ++++)”. The like results for “150 (RLWEEGEELEL; listed as Homo sapiens) [compound 150]” were, in that order, “″+″ (<20% = +)” and “″+++″ (≥50% = +++)”. The corresponding values for “166 (YLNHLEPPV; listed as Homo sapiens) [compound 166]” are “″++++″ (> = 70% = ++++)” and “″+++″ (≥50% = +++)”. The corresponding values for “199 (ALQDVPLSSV; listed as Homo sapiens) [compound 199]” are “″+″ (<20% = +)” and “″+++″ (≥50% = +++)”. As to “247 (VLLPNDLLEKV; listed as Homo sapiens) [compound 247]”, the “Wells positive [%]” value with CD8+ T cells is on record as “″+″ (<20% = +)”. Moreover, the Peptide exchange entry with HLA-A*02:01 is “″+++″ (≥50% = +++)”. As for “604 (SILDRDDIFV; listed as Homo sapiens) [compound 604]”, in the experiment with HLA-A*02:01, the Peptide exchange entry is given as “″+++″ (≥50% = +++)”. Still for that read-out and setting: with “605 (KLYEAVPQL; listed as Homo sapiens) [compound 605]” the entry was “″+++″ (≥50% = +++)”; with “606 (ALWETEVYI; listed as Homo sapiens) [compound 606]”, “″+++″ (≥50% = +++)”. Same read-out and setting: under “607 (RLYSGISGLEL; listed as Homo sapiens) [compound 607]” stands “″+++″ (≥50% = +++)”. Still for that read-out and setting: under “608 (SLLSVSHAL; listed as Homo sapiens) [compound 608]” stands “″+++″ (≥50% = +++)”. For “609 (ALWKQLLEL; listed as Homo sapiens) [compound 609]”, in the experiment with HLA-A*02:01, the Peptide exchange entry is “″+++″ (≥50% = +++)”. On the same count and under the same terms, with “610 (LLAPTPYIIGV; listed as Homo sapiens) [compound 610]” the entry was “″+++″ (≥50% = +++)”. “611 (YLLDDGTLVV; listed as Homo sapiens) [compound 611]”: in the experiment with HLA-A*02:01, the Peptide exchange entry is “″++++″ (≥75% = ++++)”. Still for that read-out and setting: with “612 (YLYNEGLSV; listed as Homo sapiens) [compound 612]” the entry was “″+++″ (≥50% = +++)”; with “613 (RLLPPGAVVAV; listed as Homo sapiens) [compound 613]”, “″+++″ (≥50% = +++)”; with “614 (LLLPDQPPYHL; listed as Homo sapiens) [compound 614]”, “″+++″ (≥50% = +++)”. Regarding “615 (VLPPDTDPA; listed as Homo sapiens) [compound 615]”, the Peptide exchange entry with HLA-A*02:01 was “″++″ (≥20% = ++)”. The same measure, in the same setting: with “616 (VLIDEVESL; listed as Homo sapiens) [compound 616]” the entry was “″+++″ (≥50% = +++)”. “617 (ALMYESEKVGV; listed as Homo sapiens) [compound 617]”: the Peptide exchange entry with HLA-A*02:01 is “″+++″ (≥50% = +++)”. Same read-out and setting: under “618 (VLFDSESIGIYV; listed as Homo sapiens) [compound 618]” stands “″+++″ (≥50% = +++)”; under “619 (ALQDRVPLA; listed as Homo sapiens) [compound 619]”, “″+++″ (≥50% = +++)”; under “620 (KLLNKIYEA; listed as Homo sapiens) [compound 620]”, “″++++″ (≥75% = ++++)”. On the same count and under the same terms, under “621 (VLMDRLPSLL; listed as Homo sapiens) [compound 621]” stands “″++++″ (≥75% = ++++)”; under “622 (RLLGEEVVRVLQA; listed as Homo sapiens) [compound 622]”, “″+++″ (≥50% = +++)”. Consider “623 (YLVEDIQHI; listed as Homo sapiens) [compound 623]”, for which the Peptide exchange result in the experiment with HLA-A*02:01 is “″+++″ (≥50% = +++)”. On the same count and under the same terms, with “635 (SLDSTLHAV; listed as Homo sapiens) [compound 635]” the entry was “″+++″ (≥50% = +++)”. For the substance “652 (TLWYRAPEV; listed as Homo sapiens) [compound 652]”, the donors result in the experiment on CD8+ T cells (HLA class I peptides, percentage of positive donors) is “++++ (> = 70% = ++++)”. For “659 (ILFPDIIARA; listed as Homo sapiens) [compound 659]”, the wells entry in the experiment on CD8+ T cells (HLA class I peptides) is recorded as “+ (<20% = +)”. Same read-out and setting: with “662 (KIQEILTQV; listed as Homo sapiens) [compound 662]” the entry was “+ (<20% = +)”; with “663 (KIQEMQHFL; listed as Homo sapiens) [compound 663]”, “+ (<20% = +)”.
